Test results reported in paper doi:10.1101/2024.06.20.599739 (2024).

Tests used:
Assay in all cases: SPR
[1] = target: linear 12 ()
[2] = target: linear 15 ()
[3] = target: linear 19 ()
[4] = target: linear 11 ()
[5] = target: EvoBind2 linear design, adversarial selection, length 11

Kd [1]: 0.728 µM
Kd [2]: 4.34 µM
Kd [3]: 7.18 µM
Kd [4]: 7.54 µM
B1: MBP-8xHis-1SCC (semi-synthetic Ribonuclease, PDB ID 1SSC) (enzyme)
chain: KETAAAKFERQHMDSSTSAASSSNYCNQMMKSRNLTKDRCKPVNTFVHESLADVQAVCSQKNVACKNGQTNCYQSYSTMSITDCRETGSSKYPNCAYKTTQANKHIIVACEG
Kd [5]: 1.21 µM
